Test results reported in patent publication EP3670537A1.

Molecular target: Claudin 18 splice variant 2 (CLDN18.2) (human)
Assay: cell-based or functional assay

In the case of IMAB362 (antibody), the in vitro EC50 concentration, CDC on CLDN18.2-transfected CHO-K1 cells is reported as 0.5 µg/mL, the in vitro EC80-100, total cytotoxicity assay on NUGC-4 cells with healthy donor PBMCs (E:T 40:1) and 25% serum is reported as 200 µg/mL and the lysis rate, CDC on CLDN18.2-transfected CHO-K1 cells, pooled sera from healthy controls with 0.5 µg/ml IMAB362 is reported as 64.5%. For the same substance, the lysis rate, CDC on CLDN18.2-transfected CHO-K1 cells, pre-infusion serum of patient 0204 with 0.5 µg/ml fresh IMAB362 was 93.9% and the specific killing of NUGC-4 cells by IMAB362 in patient serum 28-32 days after administration, all dose groups was > 48%.
